The test deals with T1, recombinant human DAF (human, UniProt P08174 35-353, limits assumed).
T1 construct: also called decay accelerating factor; CD55
T1 sequence (looked up): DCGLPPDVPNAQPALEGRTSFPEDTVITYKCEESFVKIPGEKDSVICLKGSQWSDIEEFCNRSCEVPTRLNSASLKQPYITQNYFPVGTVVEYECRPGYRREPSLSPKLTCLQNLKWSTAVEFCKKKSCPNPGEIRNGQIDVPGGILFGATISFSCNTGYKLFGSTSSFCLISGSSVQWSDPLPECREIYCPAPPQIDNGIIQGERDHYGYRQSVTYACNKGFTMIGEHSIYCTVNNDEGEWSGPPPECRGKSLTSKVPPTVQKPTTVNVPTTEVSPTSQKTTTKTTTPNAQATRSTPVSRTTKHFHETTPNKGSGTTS
As to the kind of experiment: SPR (BIACORE 1000), recombinant human DAF on a CM-5 chip, LU30 scFv injected. On the procedure: Affinity Measurements. Kinetic measurements were made by surface plasmon resonance using a BIACORE 1000™ Biosensor (Biacore, AB Uppsala, Sweden). CM-5 chips were functionalized with 350 response units recombinant human DAF in 10 mM sodium acetate (pH 4.6) or 8,000 response units bovine serum albumin as a negative control. The DAF-derivatized chip was saturated with LU30 scFv (25-100 nM) by injecting this fragment at 10 :l/min in PBS containing 0.5% (w/v) bovine serum albumin and 0.05% (v/v) TWEEN 20™. The resultant sensorgrams were analyzed using BIAEVALUATION™ software 3.0.
(In general: Surface plasmon resonance follows binding to a sensor surface in real time, without labels.)

B1: LU30 scFv (scFv, V domains shown)
VH: QVKLQESGGGLVQPGGSLKLSCAASGFTFSGYGMSWIRQTPDKRLEWVATINSGGSYTYYSDSVKGRFTISRDNVKNTLYLQMSSLKSEDTAMYYCARRNGTLYYYLMDYWGRGTLVTVSS
VL: QSVLTQPPSASGSPGQSVTISCTGTSSDVGGYNYVSWYQQHPGKAPKFMIYDVSKRPSGVSNRFSGSKSGNTASLTISGVQAEDEADYYCSSYTSASTVIFGGGTKLTVL
notes: Human scFv from a naive phage library, secreted from E. coli and purified through its His tag; also called clone LU30; LU30 scFv fragment; not shown: scFv linker between the domains, domain order, and the His tag
As to B1, the Kd was 13 nM, the dissociation rate constant (koff) was determined as 0.0045 s⁻¹ and the kon is 340000 M⁻¹ s⁻¹.

By Kd is commonly meant the concentration at which binding is half-saturated. In general, koff refers to the rate constant with which the complex falls apart. As usually defined, the kon is a measure of how fast the partners come together.
